Assay results: patent US20100003195A1 (published 2010)
Bridge positions count the residues as written; N and C are the ends. Primed or numbered codes have the meaning given here. Ends that are not written are not given here. I, II: the chains in the order shown. * marks the point of attachment. ivDde′ = (4,4-dimethyl-2,6-dioxocyclohex-1-ylidene)-3-methylbutyl protecting group, CC(C)CC(=C1C(=O)CC(C)(C)CC1=O)*

Key:
[1] = target: T1, KDR on HUVECs (human, UniProt P35968 20-1356); experiment: cell-based or functional assay
[2] = target: T1, KDR on HUVECs; experiment: cell-based or functional assay; remark: listed apart in the source
[3] = target: T2, KDR on KDR-transfected 293H cells (human, UniProt P35968 20-1356); experiment: competitor 125I-VEGF (300 pM), KDR-transfected 293H cells, peptide 30 µM
T2 construct: whole, on cells; also called KDR-expressing cells; KDR-transfected cells

[4] = target: T2, KDR on KDR-transfected 293H cells; experiment: competitor 125I-VEGF (300 pM), KDR-transfected 293H cells, peptide 0.3 µM
[5] = target: T3, human KDR-Fc chimeric fusion (R&D Systems #357-KD-05) (human, UniProt P35968 20-764); experiment: BIAcore steady state, KD1, KDR-Fc at 1600 RU
T3 construct: bought; also called KDR Fc fusion
Protocol: (§1) All samples were injected in duplicate. […] Following a 10 minute dissociation, any remaining peptide was stripped from the KDR surface with a quickinject of 50 mM NaOH+1 M NaCl for 12 s at 75 μL/min. Sensorgrams were analyzed using BIAevaluation software 3.1 and a hyperbolic double rectangular regression equation in SigmaPlot 6.0.

[6] = target: T3, human KDR-Fc chimeric fusion (R&D …); experiment: BIAcore steady state, KD1, KDR-Fc at 3000 RU
Protocol: as §1

[7] = target: T3, human KDR-Fc chimeric fusion (R&D …); experiment: BIAcore steady state, KD1, KDR-Fc at 6000 RU
Protocol: as §1

[8] = target: T3, human KDR-Fc chimeric fusion (R&D …); experiment: BIAcore steady state, KDAV, KDR-Fc at 1600 RU
Protocol: as §1

[9] = target: T3, human KDR-Fc chimeric fusion (R&D …); experiment: BIAcore steady state, KDAV, KDR-Fc at 3000 RU
Protocol: as §1

[10] = target: T3, human KDR-Fc chimeric fusion (R&D …); experiment: BIAcore steady state, KDAV, KDR-Fc at 6000 RU
Protocol: as §1

[11] = target: T3, human KDR-Fc chimeric fusion (R&D …); experiment: BIAcore steady state at the higher immobilization densities
Protocol: as §1

[12] = target: T2, KDR on KDR-transfected 293H cells; experiment: radioligand binding, 1-4 µCi/mL, KDR- vs mock-transfected 293H cells
[13] = target: T2, KDR on KDR-transfected 293H cells; experiment: Tc-labeled dimer on KDR- vs mock-transfected 293H cells

T1 sequence (P35968 20-1356): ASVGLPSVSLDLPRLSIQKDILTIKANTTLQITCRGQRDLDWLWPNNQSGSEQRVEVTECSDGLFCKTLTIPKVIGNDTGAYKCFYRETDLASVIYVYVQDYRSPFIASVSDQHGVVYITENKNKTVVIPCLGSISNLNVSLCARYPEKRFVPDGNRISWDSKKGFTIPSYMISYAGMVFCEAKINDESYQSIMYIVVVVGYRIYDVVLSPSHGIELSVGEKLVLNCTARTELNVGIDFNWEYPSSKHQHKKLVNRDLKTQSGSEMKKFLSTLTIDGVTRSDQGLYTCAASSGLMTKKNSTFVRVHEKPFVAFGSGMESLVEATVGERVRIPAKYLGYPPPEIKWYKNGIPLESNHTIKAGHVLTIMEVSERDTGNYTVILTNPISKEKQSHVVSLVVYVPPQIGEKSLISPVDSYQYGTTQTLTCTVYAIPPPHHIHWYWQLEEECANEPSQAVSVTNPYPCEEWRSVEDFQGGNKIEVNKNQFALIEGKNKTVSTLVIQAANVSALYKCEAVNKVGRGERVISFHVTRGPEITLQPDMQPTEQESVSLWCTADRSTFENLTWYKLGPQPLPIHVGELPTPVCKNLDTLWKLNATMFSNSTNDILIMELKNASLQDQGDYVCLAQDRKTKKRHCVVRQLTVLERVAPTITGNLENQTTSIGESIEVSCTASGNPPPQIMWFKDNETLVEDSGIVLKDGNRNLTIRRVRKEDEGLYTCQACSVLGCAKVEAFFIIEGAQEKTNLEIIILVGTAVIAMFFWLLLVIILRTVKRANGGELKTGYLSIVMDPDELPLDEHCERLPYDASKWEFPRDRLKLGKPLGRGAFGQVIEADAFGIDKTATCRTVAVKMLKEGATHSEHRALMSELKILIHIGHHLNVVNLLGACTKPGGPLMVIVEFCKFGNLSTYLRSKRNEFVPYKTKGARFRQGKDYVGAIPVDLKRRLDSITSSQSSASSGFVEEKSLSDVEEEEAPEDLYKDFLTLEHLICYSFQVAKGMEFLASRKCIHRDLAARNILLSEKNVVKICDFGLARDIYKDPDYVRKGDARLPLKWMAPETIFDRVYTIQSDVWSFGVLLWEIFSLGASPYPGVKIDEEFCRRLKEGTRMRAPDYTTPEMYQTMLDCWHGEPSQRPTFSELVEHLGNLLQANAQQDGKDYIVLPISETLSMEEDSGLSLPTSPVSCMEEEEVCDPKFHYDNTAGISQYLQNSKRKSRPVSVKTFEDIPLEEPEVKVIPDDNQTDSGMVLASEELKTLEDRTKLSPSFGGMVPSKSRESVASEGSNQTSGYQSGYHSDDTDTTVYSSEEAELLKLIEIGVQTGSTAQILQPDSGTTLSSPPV
T2 sequence (P35968 20-1356): as above
T3 sequence (P35968 20-764, change not shown): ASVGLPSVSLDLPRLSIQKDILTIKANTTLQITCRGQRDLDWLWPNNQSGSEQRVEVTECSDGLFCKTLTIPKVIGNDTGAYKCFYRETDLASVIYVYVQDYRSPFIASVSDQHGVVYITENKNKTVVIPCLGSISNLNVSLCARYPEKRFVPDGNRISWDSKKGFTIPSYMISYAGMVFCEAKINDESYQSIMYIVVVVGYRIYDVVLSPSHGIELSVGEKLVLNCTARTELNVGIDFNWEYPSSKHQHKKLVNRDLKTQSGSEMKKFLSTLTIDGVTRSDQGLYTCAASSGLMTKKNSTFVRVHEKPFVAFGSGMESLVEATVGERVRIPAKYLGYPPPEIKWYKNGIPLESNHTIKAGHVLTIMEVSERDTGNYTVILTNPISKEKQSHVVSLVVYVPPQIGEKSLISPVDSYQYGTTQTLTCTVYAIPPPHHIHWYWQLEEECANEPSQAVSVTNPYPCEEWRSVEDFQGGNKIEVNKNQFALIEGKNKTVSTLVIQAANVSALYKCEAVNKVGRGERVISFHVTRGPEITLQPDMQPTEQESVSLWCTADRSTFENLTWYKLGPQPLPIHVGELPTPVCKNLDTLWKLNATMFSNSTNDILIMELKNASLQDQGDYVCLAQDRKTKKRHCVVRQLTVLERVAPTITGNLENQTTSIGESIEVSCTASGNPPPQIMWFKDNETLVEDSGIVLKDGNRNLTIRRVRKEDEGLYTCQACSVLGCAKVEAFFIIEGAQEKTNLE

Q: Which “VEGF-induced KDR phosphorylation, HUVEC immunoblot” value (from here on “VEGF-induced KDR phosphorylation”) [1] does the source give for Ac-AQGDYVYWEIIELTGATDHTPPGGK-NH2 (also: fluorescein on C-terminal Lys in FP only) [SEQ ID NO:307] here?
A: ≥ 50 % inhibition at 10 µM

Q: With Ac-AGWIECYHPDGICYHFGTGGGK-NH2 (disulfide 6-13 (inferred); also: fluorescein on C-terminal Lys in FP only) [SEQ ID NO:269] as the binder, how does the “VEGF-induced KDR phosphorylation” value [1] read?
A: ≥ 50 % inhibition at 10 µM

Q: For Ac-AGPTWCEDDWYYCWLFGTGGGK-NH2 (cysteine pairing not given here; also: fluorescein on C-terminal Lys in FP and) [SEQ ID NO:277], which “IC50, receptor activation assay” value [2] is on record?
A: 0.1 µM

Q: What about the “% inhibition of 125I-labeled VEGF binding” value (from here on “% inhibition”) [3] of the same binder?
A: 104%

Q: What about the “% inhibition” value [4] of the same binder?
A: 81%

B1: dimer 25 (D25) (peptide)
peptide 1: Ac-AGPTWCEDDWYYCWLFGTGGGK-NH2
peptide 2: Ac-GDSRVCWEDSWGGEVCFRYDPGGGK-NH2
modifications: disulfide I:6-I:13, II:6-II:16 (inferred); not fully specified (bridges); also: dimer joined by JJ-Glut-Lys linker
Q: Which “IC50, VEGF-induced HUVEC migration” value [2] does the source give for B1 here?
A: 5 nM

Q: For Ac-AGWLECYAEFGHCYNFGTGGGK-NH2 (disulfide 6-13 (inferred); also: fluorescein on C-terminal Lys in FP only) [SEQ ID NO:267], which “VEGF-induced KDR phosphorylation” value [1] is on record?
A: ≥ 50 % inhibition at 10 µM

B2: dimer 6 (D6) (peptide)
peptide 1: GDSRVCWEDSWGGEVCFRYDPGGGK
peptide 2: AGPTWCEDDWYYCWLFGTGGGK
modifications: disulfide I:6-I:16, II:6-II:13 (inferred); also: heterodimer made with glutaric acid bis-NHS ester
notes: heterodimer made with glutaric acid bis-NHS ester
Q: What does the source list for B2?
A: IC50, VEGF-induced HUVEC migration [2]: ~12.5 nM; Kd [5]: 46 nM; Kd [6]: 25.5 nM; Kd [7]: 17 nM; Kd [8]: 1.5 nM; Kd [9]: 0.665 nM; Kd [10]: 0.662 nM; Kd [11]: ~0.6 nM

B3: dimer 17 (D17) (peptide)
peptide 1: AQDWYYDEILGRGGRGGRGGK
peptide 2: VCWEDSWGGEVCFRYDPGGGK
modifications: not fully specified; N-acetyl; C-terminal Lys(JJ-Glut) amide; N-acetyl; J spacer within the chain
Q: For B3, which “IC50, VEGF-induced HUVEC migration” value [2] is on record?
A: ~250 nM

Q: Ac-GDSRVCWEDSWGGEVCFRYDPGGGK-NH2 (disulfide 6-16 (inferred); also: fluorescein on C-terminal Lys in FP only) [SEQ ID NO:294] was tested. Which “VEGF-induced KDR phosphorylation” value [1] did it give?
A: ≥ 50 % inhibition at 10 µM

Q: And the “% inhibition” value [3]?
A: 96.3%

Q: And the “% inhibition” value [4]?
A: 52.3%

Q: Which “VEGF-induced KDR phosphorylation” value [1] does the source give for Ac-GDWWECK(ivDde′)REEYRNTTWCAWADPGGGK-NH2 (disulfide 6-17 (inferred)) [SEQ ID NO:366 having a blocked K] here?
A: ≥ 50 % inhibition at 10 µM

Q: With Ac-GDPDTCTMWGDSGRWYCFPADPGGGK-NH2 (disulfide 6-17 (inferred); also: fluorescein on C-terminal Lys in FP only) [SEQ ID NO:301] as the binder, how does the “VEGF-induced KDR phosphorylation” value [1] read?
A: ≥ 50 % inhibition at 10 µM

Q: For Ac-AQEPEGYAYWEVITLYHEEDGDGGK-NH2 (also: fluorescein on C-terminal Lys in FP only) [SEQ ID NO:305], which “VEGF-induced KDR phosphorylation” value [1] is on record?
A: ≥ 50 % inhibition at 10 µM

Q: With Ac-AQAFPRFGGDDYWIQQYLRYTDGGK-NH2 (also: fluorescein on C-terminal Lys in FP only) [SEQ ID NO:306] as the binder, how does the “VEGF-induced KDR phosphorylation” value [1] read?
A: ≥ 50 % inhibition at 10 µM

B4: 125I-labeled D5 (peptide)
peptide 1: Ac-VCWEDSWGGEVCFRYDPGGGK-NH2
peptide 2: Ac-AGPTWCEDDWYYCWLFGTGGGK-NH2
modifications: disulfide I:2-I:12, II:6-II:13 (inferred); not fully specified (bridges); also: dimer joined by JJ-glutaryl-Lys linker, 125I Bolton-Hunter label, site not given here
notes: also called dimer 5
Q: Does B4 bind [12]?
A: binds

B5: Tc-labeled D18 (scrambled derivative of D10) (peptide)
peptide 1: Ac-APGTWCDYDWEYCWLGTFGGGK-NH2
peptide 2: Ac-GVDFRCEWSDWGEVGCRSPDYGGGK-NH2
modifications: disulfide I:6-I:13, II:6-II:16 (inferred); not fully specified (some residues, bridges); also: 99mTc chelated by PnAO6, J not defined
notes: control; also called dimer 18
Q: Does B5 bind [13]?
A: no binding (tested: up to 10 µCi/mL)
